# In patent US20240382572A1, “COMBINATIONS OF CHECKPOINT INHIBITORS AND THERAPEUTICS TO TREAT CANCER” (Cognate Bioservices, Inc., priority 2013, published 2024):
# How the values were obtained:
# PD-1 = target: T1, PD-1 (Homo sapiens, UniProt Q15116); conditions: phase II, DLBCL, cited from earlier work
# T1 construct: host or cells: Trial subjects (patients); PD-1 is endogenous
# GL261 murine glioma [1] = test: Flow cytometry of tumor, lymph node and spleen harvests from GL261 glioma-bearing mice; type: in vivo, C57BL/6 mice
# Protocol: Mice were intracranially implanted with GL261 murine glioma and then administered PBS (Ix) or lysate-pulsed DC vaccine subcutaneously on days 3 and 13 post-tumor implant. On day 16, 72 h after the second treatment, mice were euthanized and spleen, lymph, and brain hemispheres harvested for processing.
# Spleen, lymph, and brain hemispheres harvested for processing on day 16 post-implant (72 h after second treatment).
# Bone marrow-derived DC and vaccination. […] Briefly, bone marrow cells were cultured in a humidified atmosphere of 5% CO2 at 37° C. overnight in complete RPMI (Mediatech, Inc. Herndon, VA) (supplemented with 10% FBS, 1% (v/v) penicillin and streptomycin). The day following, nonadherent cells were collected and plated with murine interleukin-4 (IL-4, 400 IU/mL, R&D Systems, Minneapolis, MN) and murine granulocyte-macrophage colony stimulating factor (GM-CSF, 100 ng/mL, R&D Systems, Minneapolis, MN). On day 4, adherent cells were re-fed with fresh media with the same cytokines. On day 7, DCs were harvested and resuspended at 1×10^6 cells/ml in complete RPMI and pulsed with GL261 lysate (250 μg/mL). On day 8, DCs were collected and resuspended at 2×10^6 cells/mL in PBS Ix and immediately prepared for injection in 0.2 mL of cell suspension per mouse. Injections were given subcutaneously (s.c.) at 4 sites on the back.
# Intracranial glioma implants. […]
# GL261 murine glioma [2] = test: Survival of mice with intracranial GL261 glioma; type: in vivo, C57BL/6 mice; conditions: mice with well-established intracranial GL261 glioma
# T1 sequence (Q15116 25-288): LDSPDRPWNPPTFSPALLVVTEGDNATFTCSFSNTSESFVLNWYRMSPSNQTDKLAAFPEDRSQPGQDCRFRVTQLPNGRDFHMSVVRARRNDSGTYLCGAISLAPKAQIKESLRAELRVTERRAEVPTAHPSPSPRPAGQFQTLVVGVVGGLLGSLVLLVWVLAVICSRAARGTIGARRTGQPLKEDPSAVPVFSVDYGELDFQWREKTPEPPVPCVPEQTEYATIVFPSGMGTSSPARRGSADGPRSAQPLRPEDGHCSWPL
Compound,subjects alive (PD-1; preliminary results) [%],subjects progression-free at the end of the follow-up period (PD-1; preliminary results) [%],activity of natural killer cells (PD-1),myeloid cells expressing PD-L1 (Thy1.2- Ly6C+ PD-L1+) in tumor (GL261 murine glioma [1]),activated tumor-infiltrating lymphocytes (CD3+ CD8+ CD25+) (GL261 murine glioma [1]; day 16 post-implant),survival (GL261 murine glioma [2])
CT-011: humanized IgG1 monoclonal antibody against PD-1,82,70,augments the activity of natural killer cells,–,–,–
FC(F)(F)c1ccc(CNc2ccc(Cc3c[nH]c4ncc(Cl)cc34)cn2)cn1 [PLX3397],–,–,–,absence of these Ly6C^+ PD-L1^+ cells,significant tumor-infiltrating population,entirely recovered survival benefit
